In test [1] the target is MPER peptide PDT-081 (HIV-1). The test can be described thus: ELISA on MPER (654-683) peptide, antibody titrated.
Test [2] concerns the target MPER peptide PDT-081 (HIV-1). The test can be described thus: BLI (Octet RED96), Fab over biotinylated peptide on streptavidin sensors. (BLI is a label-free optical method that tracks binding on a fibre tip over time.)
For test [3], the target named is MPER peptide PDT-081 (HIV-1).
In test [4] the target is MPER peptide PDT-081 (HIV-1). The test can be described thus: BLI on PDT-081.
The target of test [5] is MPER peptide PDT-081 (HIV-1). In words: ELISA on PDT-081. On the technique in general: ELISA stands for enzyme-linked immunosorbent assay.

Where a chain is given by its changes, count along the chain named. Like-named read-outs stand apart in the source and are kept apart here.

B1: PGZL1 (antibody, V domains shown)
VH: EVQLVQSGGEVKRPGSSVTVSCKATGGTFSTLAFNWVRQAPGQGPEWMGGIVPLFSIVNYGQKFQGRLTIRADKSTTTVFLDLSGLTSADTATYYCAREGEGWFGKPLRAFEFWGQGTVITVSS
VL: DVVMTQSPGTLSLSPGERATLSCRASQSVSGGALAWYQQKPGQAPRLLIYDTSSRPTGVPGRFSGSGSGTDFSLTISRLEPEDFAVYYCQQYGTSQSTFGQGTRLEIK
The molecule B1 displayed a concentration for a half-maximal effect (EC50 (read off the curve)) in test [1] of 0.02 µg/mL.

B2: PGZL1 Fab (Fab, V domains shown)
VH: B1 VH
VL: B1 VL
B2 came in with a Kd in test [2] of 9.9 nM.

B3: H4K3_RS73PE Fab (Fab, V domains shown)
VH: KVQLVQSGAELKKPWSSVRVSCKASGGSFSSYAFNWVRQAPGQRLEWLGGIVPLVSSTNYAQRFRGRVTISADPETSTVYLEMTGLTSADTAVYFCAREGEGWFGRPLRAFEFWGQGTLVTVST
VL: EIVLTQSPGTFALSPGERATLSCRASQSVSGGALAWYQQKAGQAPRLLIYDTSGRATGVPGRFSGSGSETDFSLTISRLEPEDFAVYYCQQYGTSQSTFGQGTRLETR
As to B3, the Kd in test [3] turned out to be 12.8 nM. In test [4], this molecule had a Kd of 12.8 nM, a koff of 0.00051 s⁻¹ and a kon of 39000 M⁻¹ s⁻¹.

B4: H4K3_5M Fab (Fab, V domains shown)
VH: B3 VH with S28E, F29P, S30E
VL: B3 VL
The molecule B4 showed a Kd in test [3] of 23.4 nM. In test [4], the Kd stood at 23.4 nM, the koff stood at 0.00067 s⁻¹ and the kon stood at 29000 M⁻¹ s⁻¹.

B5: H4K3_SFS28EPE Fab (Fab, V domains shown)
VH: B3 VH with S28E, F29P, S30E, P74R, E75S
VL: B3 VL
With B5, the Kd in test [3] is 15.1 nM. Moreover, in test [4], the Kd amounted to 15.1 nM, the koff came to 0.00054 s⁻¹ and the kon was 36000 M⁻¹ s⁻¹.

B6: PGZL1.H4K3 Fab (Fab, V domains shown)
VH: B3 VH with P74R, E75S
VL: B3 VL with D51G
In test [4], B6 yielded a koff of 0.00051 s⁻¹ and a kon of 68000 M⁻¹ s⁻¹. In test [2], this molecule came in with a Kd of 7.5 nM, an off rate faster than that of PGZL1 of 8% and an on rate faster than that of PGZL1 of 24%.

B7: H4K3_5M (antibody, V domains shown)
VH: B3 VH with S28E, F29P, S30E
VL: B3 VL
Consider B7, for which, in test [5], the EC50 stood at 0.083 µg/mL and the Fold Increase (ELISA EC50 over H4K3) is 2.1 fold.

B8: H4K3_RS73PE (antibody, V domains shown)
VH: B3 VH
VL: B3 VL
In test [5], B8 returned an EC50 of 0.09 µg/mL and a Fold Increase (ELISA EC50 over H4K3) of 2.3 fold.

B9: PGZL1.H4K3 (antibody, V domains shown)
VH: B3 VH with P74R, E75S
VL: B3 VL with D51G
With B9, in test [5], the EC50 turned out to be 0.039 µg/mL.

B10: H4K3_SFS28EPE (antibody, V domains shown)
VH: B3 VH with S28E, F29P, S30E, P74R, E75S
VL: B3 VL
In test [5], B10 gave an EC50 of 0.076 µg/mL and a Fold Increase (ELISA EC50 over H4K3) of 2 fold.

Broadly, the EC50 (read off the curve) is the concentration needed to bring the measured effect to its halfway point. Low values mean higher potency in that assay, high ones lower potency in that assay. What is called Kd is a measure of binding affinity in units of concentration. A low value points to tighter binding. The koff is a measure of how fast the partners let go of each other. A lower koff goes with slow dissociation. As a reminder, the kon is the rate constant with which the complex forms. Broadly, the EC50 is the concentration at which the effect is half-maximal. Higher therefore signals lower potency in that assay.

The record behind these values is US20240124560A1.
